Assays:
[1] = biological target: σ^R (sigma factor SigR) from Streptomyces coelicolor, residues 5-227, tagless (Streptomyces coelicolor) (UniProt Q7AKG9); experiment: ITC; RsrA mutants (values in Supplementary Table 1); 35 °C, 50 mM Tris pH 7.5, 100 mM NaCl, 2 mM DTT; direct titration for weaker binding mutants (10 μM RsrA in the cell, 100 μM σ^R in the syringe); RsrA preincubated with ZnCl2 and buffer exchanged where zinc was included
[2] = biological target: σR (residues 5-227) (Streptomyces coelicolor) (UniProt Q7AKG9); experiment: ITC; with zinc (+), RsrA preincubated with 1 mM ZnCl2 and buffer exchanged; direct titration for weaker binding mutants (methods: 10 μM RsrA in the cell, 100 μM σR in the syringe); 35 °C, 50 mM Tris pH 7.5, 100 mM NaCl, 2 mM DTT; single binding site model

fold weakening of binding to σ^R against RsrA [1] | Kd [2] | Substance
> 100 fold |  | RsrA Val75Ala Leu79Ala (from UniProt Q7AKG8 1-105) (natural protein)
 | 557 nM | RsrA* C41S (from UniProt Q7AKG8 4-105) (natural protein)
> 100 fold |  | RsrA Val54Ala Leu57Ala (from UniProt Q7AKG8 1-105) (natural protein)

— paper PMC4960319
